The Human Domainome abundance scans (Beltran et al. 2025)

B1: DnaJ homolog subfamily C member 2, residues 451 to 503; numbered along this chain, Q99543 (parent)
chain: SKNWSEDDLQLLIKAVNLFPAGTNSRWEVIANYMNIHSSSGVKRTAKDVIGKA

Variants of: B1
Experiment: abundance fitness (aPCA) (normalised: wild type 0, dead -1); higher = more abundant; growth selection in yeast, the domain comes from the species named
Details: Homo sapiens

Abundance fitness of substitutions, site by site:
G41: Y -0.25 | E -0.151 | P -0.114 | F 0.064 | K 0.001 | N -0.143 | T -0.072 | C -0.103 | D -0.066 | A 0.089 | R -0.061 | I -0.119 | H -0.129 | L -0.186 | M -0.035 | W -0.645
W27: Q -0.726 | V -0.444 | C -0.261 | R -0.791 | N -0.581 | H -0.537 | E -0.168 | L -0.597 | A -0.114 | I -0.286 | T -0.475 | P -0.247 | F -0.207 | M -0.323 | D -0.419 | G -0.138 | Y -0.299
S40: R -0.286 | T -0.166 | Q -0.158 | W -0.646 | P -0.52 | M -0.536 | V -0.484 | L -0.306 | A 0.009 | H -0.125 | F -0.559 | K -0.302 | Y -0.504 | C -0.217 | D -0.282 | E -0.336 | N -0.16
V42: F -0.145 | A -0.685 | I 0.093
R26: H -0.831 | G -0.74 | A -0.557 | S -0.934 | T -0.52
M34: P -0.553 | V 0.003 | Q -0.696 | R -0.963 | H -0.683 | D -0.833 | E -0.816 | L -0.056 | Y -0.722 | A -0.895 | F -0.317 | W -0.666 | G -0.977 | I -0.011 | C -0.136
A21: Q 0.049 | N -0.217 | F -0.096 | M 0.005 | G -0.122 | C -0.117 | D -0.039 | P -0.094 | Y -0.265 | K -0.018 | W -0.244 | L -0.079 | T -0.016 | E 0.066 | S -0.029 | V -0.142 | H 0.083 | R -0.054 | I -0.185
H37: Y -0.044
N24: K -0.013 | V -0.068 | D 0.008 | L -0.116 | E 0.07 | I -0.09 | F -0.101 | G -0.276 | S -0.043 | A 0.14 | T -0.024 | M -0.056 | Q -0.112 | P -0.066 | C -0.166 | H 0.118 | W -0.279 | R -0.045
T23: R -0.649 | H -0.147 | G -0.262 | I -0.226 | E -0.325 | L -0.221 | Q -0.162 | P -0.539 | A -0.267 | M -0.221 | D -0.165 | K -0.587 | S -0.276 | Y -0.201 | F 0.038 | C -0.353 | V -0.302
V29: I -0.127 | K -0.113 | Y -0.166 | A 0.082 | R 0.043 | C -0.071 | H -0.096 | G -0.026 | D 0.16 | L -0.051 | N -0.166 | E -0.103 | S 0.01 | T 0.008 | M 0.078 | Q 0.104 | F -0.32 | W -0.082 | P -0.696
E28: R -0.138 | C -0.49 | S -0.013 | V -0.259 | N -0.312 | W -0.592 | D -0.089 | M -0.44 | K -0.237 | G -0.397 | Y -0.866 | A -0.278 | T -0.351 | F -0.376 | Q 0.009 | P -0.627
S25: T -0.144 | Y -0.281 | K -0.003 | N -0.384 | E -0.159 | D 0.062 | W -0.219 | G -0.077 | Q -0.235 | C -0.04 | I -0.788 | A -0.094 | F -0.272 | L -0.239
I36: T -0.007 | Q 0.079 | C 0.043 | F -0.116 | W -0.134 | H -0.135 | L 0.049 | P -0.994 | N 0.049 | G -0.009 | K 0.208 | Y -0.141 | S 0.014
A31: M -0.66 | G -0.607 | E -0.859 | S -0.179 | V -0.397 | D -0.831 | T 0.051 | I -0.82 | R -0.384 | Q -0.549 | P -0.837 | Y -1.08 | W -0.857 | L -0.463 | N -0.768 | F -1.01 | H -0.919 | K -0.357
S39: G 0.016 | K -0.086 | Y -0.339 | N -0.076 | F -0.362 | M -0.122 | W -0.183 | D 0.03 | L -0.095 | H 0.05 | I -0.197 | V -0.158 | E 0.076 | R 0 | Q -0.102 | P 0.001 | A 0.122
I30: R -0.951 | A -0.651 | M -0.535 | K -0.873 | Q -1 | T -0.987 | P -0.94 | N -0.999 | Y -0.923 | L -0.789 | E -0.955 | G -0.905 | D -0.729 | S -0.947 | V -0.019 | F -0.635 | W -0.839
N35: L -1.07 | S -0.186 | Q -0.558 | H -0.519 | I -0.86 | D -0.685 | T -0.345 | K -0.871 | V -0.815 | R -0.59 | G -0.646 | Y -0.775 | P -1.08 | C -0.587 | W -0.897 | M -0.56
G22: E 0.011 | T -0.065 | Q -0.293 | F -0.489 | P -0.217 | W -0.293 | K -0.146 | A -0.064 | D -0.016 | R -0.098 | C 0.015 | M -0.371 | L -0.484 | I -0.194 | H -0.166 | Y -0.267 | V -0.28 | S 0.002
K43: D -0.015 | A -0.133 | C -0.06
P20: V -0.772 | W -0.975
N32: Y -0.507 | Q -0.103 | R -0.095 | F -0.542 | P -0.93 | G -0.2 | E 0.061 | H 0.076 | D -0.016 | T -0.13 | I -0.66 | C -0.524 | A -0.04 | M -0.302 | W -0.38 | K -0.083 | L -0.315
S38: Y -1.03 | R -0.435 | F -0.822 | Q -0.176 | P -0.936 | E -0.609 | V -0.755 | T -0.116 | W -1 | D -0.61 | C -0.169 | H -0.525 | N -0.162 | A -0.224 | G -0.069 | L -0.86 | I -1.04 | K -0.517
Y33: E -0.805 | K -0.568 | L -0.914 | A -0.752 | C -0.996 | P -0.938 | R -0.865 | M -0.882 | H -0.414 | W -0.073 | S -0.87 | V -0.847 | Q -0.746 | T -0.915 | D -0.977 | N -0.968 | I -1.02 | G -0.981
